This assay has as its target thyrotropin receptor (TSHR) (UniProt P16473). Nature of the assay: cell-based or functional assay.
UniProt P16473, sequence (P16473 21-764 limits assumed): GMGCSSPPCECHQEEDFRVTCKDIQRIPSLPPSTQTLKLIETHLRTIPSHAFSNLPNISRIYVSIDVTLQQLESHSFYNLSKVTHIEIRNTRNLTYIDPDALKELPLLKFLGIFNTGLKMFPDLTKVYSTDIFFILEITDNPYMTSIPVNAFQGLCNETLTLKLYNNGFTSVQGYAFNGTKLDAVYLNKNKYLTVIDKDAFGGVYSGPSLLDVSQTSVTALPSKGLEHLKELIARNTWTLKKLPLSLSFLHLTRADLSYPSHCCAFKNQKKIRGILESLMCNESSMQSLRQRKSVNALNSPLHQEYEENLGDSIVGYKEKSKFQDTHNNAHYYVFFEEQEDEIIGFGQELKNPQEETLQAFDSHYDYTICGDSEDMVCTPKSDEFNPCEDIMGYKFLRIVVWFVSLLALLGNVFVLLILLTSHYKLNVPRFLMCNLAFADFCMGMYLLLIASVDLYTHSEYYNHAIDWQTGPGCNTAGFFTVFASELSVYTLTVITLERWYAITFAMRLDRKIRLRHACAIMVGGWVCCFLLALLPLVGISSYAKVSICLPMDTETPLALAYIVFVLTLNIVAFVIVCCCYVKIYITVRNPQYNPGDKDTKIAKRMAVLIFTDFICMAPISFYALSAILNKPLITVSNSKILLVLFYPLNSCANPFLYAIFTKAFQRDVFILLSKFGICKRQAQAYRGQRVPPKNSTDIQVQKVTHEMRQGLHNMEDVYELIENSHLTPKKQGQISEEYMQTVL

“recombinant human thyroid stimulating hormone (rhTSH) produced and purified by the method of the invention (from UniProt P01215 25-116; P01222 21-138) (ligand)” showed an EC50 of cAMP induction (RLU, HitHunter cAMP XS+ luminescence) in CHO-K1 cells expressing TSHR, relative to the control group (Thyrogen) of 99%.

(Values after patent publication US20190062396A1.)
